Measurements as given in patent US20210332142A1 (Genentech, published 2021).

Columns and labels:
[1] = target: T1, human Tie2 ECD5 (extracellular domain without the FN3 domains; Ig1, Ig2, EGF and Ig3 domains) (human, UniProt Q02763 23-442); assay: ELISA: human Tie2 ECD5 construct immobilized, serial dilutions of IgG, anti-huFc-HRP
T1 construct: whole entry named; also called huECD5; hECD5; not shown: C-terminal carrier of the coated construct (hIgG1 Fc or Flag tag)
Source text: (§1) Plates were washed and detected with anti-huFC-conjugated HRP secondary antibody using the methods above.

[2] = target: T2, human Tie1 (human, UniProt P35590 22-759); assay: ELISA: human Tie1 immobilized, serial dilutions of IgG, anti-huFc-HRP
T2 construct: extracellular domain
T2 sequence (looked up): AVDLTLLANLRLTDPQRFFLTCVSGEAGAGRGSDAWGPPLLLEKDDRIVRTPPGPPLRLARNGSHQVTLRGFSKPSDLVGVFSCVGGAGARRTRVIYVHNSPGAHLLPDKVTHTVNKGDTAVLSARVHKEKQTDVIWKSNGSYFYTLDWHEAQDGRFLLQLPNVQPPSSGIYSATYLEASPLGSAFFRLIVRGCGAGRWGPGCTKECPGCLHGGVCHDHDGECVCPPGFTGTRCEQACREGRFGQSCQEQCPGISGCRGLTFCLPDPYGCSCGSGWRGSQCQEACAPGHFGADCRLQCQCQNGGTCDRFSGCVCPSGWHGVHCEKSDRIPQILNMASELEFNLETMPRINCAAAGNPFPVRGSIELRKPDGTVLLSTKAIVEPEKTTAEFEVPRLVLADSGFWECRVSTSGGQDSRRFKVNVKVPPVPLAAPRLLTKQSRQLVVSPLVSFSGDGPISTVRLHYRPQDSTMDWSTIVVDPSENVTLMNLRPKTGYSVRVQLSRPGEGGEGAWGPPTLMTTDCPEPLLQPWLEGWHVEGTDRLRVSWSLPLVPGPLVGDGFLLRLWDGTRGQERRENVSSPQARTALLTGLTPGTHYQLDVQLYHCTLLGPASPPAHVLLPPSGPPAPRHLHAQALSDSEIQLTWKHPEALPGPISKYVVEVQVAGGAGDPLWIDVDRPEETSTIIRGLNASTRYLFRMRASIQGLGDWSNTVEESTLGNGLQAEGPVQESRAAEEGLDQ
Source text: as §1
The binding ELISA was also used with immobilized Tie1 protein to assess Tie1 binding.

[3] = target: T3, human Tie2ECD.flag (human, UniProt Q02763 23-748); assay: Biacore, hIgG captured, 25C
T3 construct: also called hTie2.flag; not shown: C-terminal Flag tag
T3 sequence (Q02763 23-748 limits assumed): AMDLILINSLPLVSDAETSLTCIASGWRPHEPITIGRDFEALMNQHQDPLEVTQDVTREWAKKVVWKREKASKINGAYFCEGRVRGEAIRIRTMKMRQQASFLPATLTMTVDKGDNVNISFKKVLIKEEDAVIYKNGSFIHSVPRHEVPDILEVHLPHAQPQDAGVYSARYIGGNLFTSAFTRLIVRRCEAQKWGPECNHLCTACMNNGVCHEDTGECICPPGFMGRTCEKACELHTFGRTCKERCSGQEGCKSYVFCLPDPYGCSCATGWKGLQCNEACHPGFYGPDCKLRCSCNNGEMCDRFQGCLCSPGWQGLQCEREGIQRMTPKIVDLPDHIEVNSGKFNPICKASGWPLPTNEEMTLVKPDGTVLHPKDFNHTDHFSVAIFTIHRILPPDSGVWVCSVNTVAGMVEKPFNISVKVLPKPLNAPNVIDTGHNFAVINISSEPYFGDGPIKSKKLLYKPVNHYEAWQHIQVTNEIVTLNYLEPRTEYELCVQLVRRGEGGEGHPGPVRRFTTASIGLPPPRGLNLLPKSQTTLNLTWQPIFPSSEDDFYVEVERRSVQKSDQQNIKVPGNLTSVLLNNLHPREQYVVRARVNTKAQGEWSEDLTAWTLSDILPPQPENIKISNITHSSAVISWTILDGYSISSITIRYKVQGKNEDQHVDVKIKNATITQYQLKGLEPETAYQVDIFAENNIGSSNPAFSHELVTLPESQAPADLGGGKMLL
Experimental: (§2) Monovalent affinities of selected anti-Tie2 hIgGs were determined using a Biacore T200 instrument (GE Life Sciences). Anti-humanFc was covalently immobilized on a Series S CM5 Biacore sensor chip to enable non-covalent capture of anti-Tie2 antibodies and binding of human or rat Tie2ECD.flag was monitored in real time at 25° C. using a multi-cycle kinetics experiment format. Between cycles, the surface was regenerated with 3 M MgCl₂. Monovalent affinities were determined by kinetic analysis, using Biacore Evaluation Software (GE Life Sciences) to fit a 1:1 binding model to the data.

[4] = target: T4, rat Tie2ECD.flag (rat, UniProt A0ABK0L6J5 19-740); assay: Biacore, hIgG captured, 25C
T4 construct: extracellular domain; also called rTie2.flag; not shown: C-terminal Flag tag
Experimental: as §2

[5] = target: T5, omalizumab; assay: phage ELISA
T5 construct: Used as irrelevant coated protein; also called irrelevant Fc-containing protein; not shown: the constant regions

[6] = target: T6, mouse Tie2 ECD5 (mouse, UniProt Q02858 23-442, limits assumed); assay: ELISA: mouse Tie2 ECD5 construct immobilized, serial dilutions of IgG, anti-huFc-HRP
T6 construct: domain: ECD5 (Ig1, Ig2, EGF and Ig3 domains); also called mECD5
T6 sequence (Q02858 23-442 limits assumed): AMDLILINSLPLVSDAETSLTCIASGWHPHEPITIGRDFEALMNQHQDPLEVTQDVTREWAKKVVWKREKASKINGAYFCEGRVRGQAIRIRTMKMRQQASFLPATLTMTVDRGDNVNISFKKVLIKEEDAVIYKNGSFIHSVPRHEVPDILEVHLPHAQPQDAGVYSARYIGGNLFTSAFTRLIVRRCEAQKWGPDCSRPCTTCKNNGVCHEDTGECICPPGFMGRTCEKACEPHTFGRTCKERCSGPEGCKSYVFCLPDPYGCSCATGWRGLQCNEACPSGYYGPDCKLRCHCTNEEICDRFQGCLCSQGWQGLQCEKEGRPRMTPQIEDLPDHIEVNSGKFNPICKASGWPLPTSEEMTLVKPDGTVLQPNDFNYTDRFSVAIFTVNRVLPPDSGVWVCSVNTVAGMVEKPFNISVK
Source text: as §1

[7] = target: T7, mouse Tie2 full extracellular domain (mouse, UniProt Q02858 23-746); assay: phage ELISA
T7 construct: extracellular domain; also called mFullECD
T7 sequence (Q02858 23-746): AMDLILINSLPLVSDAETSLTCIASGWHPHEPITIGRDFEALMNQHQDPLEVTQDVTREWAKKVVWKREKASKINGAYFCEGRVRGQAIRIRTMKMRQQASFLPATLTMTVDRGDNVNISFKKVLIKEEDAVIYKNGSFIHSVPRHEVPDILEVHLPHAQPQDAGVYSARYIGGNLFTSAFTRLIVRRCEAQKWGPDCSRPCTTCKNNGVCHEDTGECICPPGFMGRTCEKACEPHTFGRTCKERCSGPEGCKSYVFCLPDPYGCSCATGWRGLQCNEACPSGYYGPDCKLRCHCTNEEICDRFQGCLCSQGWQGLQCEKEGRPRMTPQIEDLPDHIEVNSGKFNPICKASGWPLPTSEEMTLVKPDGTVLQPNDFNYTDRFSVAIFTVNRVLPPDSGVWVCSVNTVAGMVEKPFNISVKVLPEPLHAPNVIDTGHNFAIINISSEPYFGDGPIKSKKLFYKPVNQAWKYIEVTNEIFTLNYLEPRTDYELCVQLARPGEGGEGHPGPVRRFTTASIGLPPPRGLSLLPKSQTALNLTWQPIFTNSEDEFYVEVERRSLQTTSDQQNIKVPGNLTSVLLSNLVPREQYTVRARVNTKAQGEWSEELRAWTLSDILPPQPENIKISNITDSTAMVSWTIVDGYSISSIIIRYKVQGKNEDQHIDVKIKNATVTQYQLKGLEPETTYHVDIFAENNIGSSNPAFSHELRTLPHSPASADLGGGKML
Experimental: Clones from the fourth round were screened for Tie2 binding and specificity by ELISA. Screening ELISAs were carried out by coating the wells of a 96-well microtiter plate with Tie2 protein or irrelevant protein at 65 ul per well (1 ug/ml in coating buffer) at 4° C. overnight. In a 96-tube plate, colonies from the fourth round were grown overnight at 37° C. in 400 ul 2YT media with 50 ug/ml carbenicillin and helper phage K07. The plate was spun down at 3000 rpm for 10 min. 30 ul of the culture supernatant was added with 60 ul of ELISA buffer (PBS with 0.5% BSA and 0.05% Tween20) to the Tie2-coated plate and incubated at room temperature for 1 hr. Plates were washed with PBS—0.05% Tween20 and 100 ul/well of horseradish peroxidase (HRP)-conjugated anti-M13 antibody (1/5000 dilution in PBS plus 0.5% BSA and 0.05% Tween20) at room temperature for 30 min (Sidhu et al., supra). The wells were washed with PBS—0.05% Tween20 prior to 100 ul/well of a 1:1 ratio of 3,3′,5,5′-tetramethylbenzidine (TMB) peroxidase substrate and Peroxidase Solution B (H₂O₂) ((Kirkegaard-Perry Laboratories (Gaithersburg, Md.)) being added per well and incubated for 5 min at room temperature. The reaction was stopped by adding 100 ul 1M phosphoric Acid (H₃PO₄) per well and the OD of wells was determined using a standard ELISA plate reader at 450 nm.

T1 sequence (Q02763 23-442 limits assumed): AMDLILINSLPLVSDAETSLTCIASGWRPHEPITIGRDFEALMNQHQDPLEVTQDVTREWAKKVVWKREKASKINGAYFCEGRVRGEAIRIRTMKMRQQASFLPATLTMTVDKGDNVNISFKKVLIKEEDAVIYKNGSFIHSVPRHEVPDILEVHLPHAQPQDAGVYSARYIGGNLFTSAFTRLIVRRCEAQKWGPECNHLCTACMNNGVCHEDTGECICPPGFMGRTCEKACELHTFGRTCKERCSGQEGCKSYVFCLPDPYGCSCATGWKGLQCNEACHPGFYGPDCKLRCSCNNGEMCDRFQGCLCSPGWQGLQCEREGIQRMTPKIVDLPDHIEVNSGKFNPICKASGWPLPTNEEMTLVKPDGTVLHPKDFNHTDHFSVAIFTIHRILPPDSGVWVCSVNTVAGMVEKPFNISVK

Row | Binder | EC50 (read off the curve) [1] [nM] | binding result [2] | Kd [3] [nM] | Kd [4] [nM] | binding result [5] | EC50 (read off the curve) [6] [nM] | binding result [7]
1 | Tie2.12 (antibody, IgG1, V domains shown, hIgG1 in later assays; also called Ab12) VH: EVQLVESGGGLVQPGGSLRLSCAASGFTFSSYWIHWVRQAPGKGLEWVAAISPNDGSTYYADSVKGRFTISADTSKNTAYLQMNSLRAEDTAVYYCARSRYYGQRLVYYVMDYWGQGTLVTVSS VL: DIQMTQSPSSLSASVGDRVTITCRASQDVSTAVAWYQQKPGKAPKLLIYSASFLYSGVPSRFSGSGSGTDFTLTISSLQPEDFATYYCQQSYTTPPTFGQGTKVEIKR | ~1 | no binding (tested: 200 nM) | 52 | 116 | no binding | ~1 | –
2 | Tie2.24 (antibody, IgG1, V domains shown, hIgG1 in later assays; also called Ab24) VH: EVQLVESGGGLVQPGGSLRLSCAASGFTFTSSGISWVRQAPGKGLEWVATINPYGGDTYYADSVKGRFTISADTSKNTAYLQMNSLRAEDTAVYYCARFYRFLSSGMDYWGQGTLVTVSS VL: DIQMTQSPSSLSASVGDRVTITCRASQDVSTAVAWYQQKPGKAPKLLIYSASFLYSGVPSRFSGSGSGTDFTLTISSLQPEDFATYYCQQSYTTPPTFGQGTKVEIKR | – | – | 822 | 2800 | no binding | – | binds
